Patent US20220267475A1

Tests used:
[1] = molecular target: CD47-expressing CHO-K1 cells (UniProt Q08722); experiment: flow cytometry
[2] = molecular target: TIGIT-expressing CHO-K1 cells (UniProt Q495A1); experiment: flow cytometry
Sequence of TIGIT-expressing CHO-K1 cells (Q495A1 22-244): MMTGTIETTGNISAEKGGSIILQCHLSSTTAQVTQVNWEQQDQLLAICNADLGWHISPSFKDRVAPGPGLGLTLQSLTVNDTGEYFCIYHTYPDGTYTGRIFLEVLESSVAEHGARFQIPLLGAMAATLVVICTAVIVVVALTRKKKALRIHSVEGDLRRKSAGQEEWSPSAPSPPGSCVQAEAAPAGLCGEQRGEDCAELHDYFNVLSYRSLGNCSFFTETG

Sequence of CD47-expressing CHO-K1 cells (Q08722 19-323): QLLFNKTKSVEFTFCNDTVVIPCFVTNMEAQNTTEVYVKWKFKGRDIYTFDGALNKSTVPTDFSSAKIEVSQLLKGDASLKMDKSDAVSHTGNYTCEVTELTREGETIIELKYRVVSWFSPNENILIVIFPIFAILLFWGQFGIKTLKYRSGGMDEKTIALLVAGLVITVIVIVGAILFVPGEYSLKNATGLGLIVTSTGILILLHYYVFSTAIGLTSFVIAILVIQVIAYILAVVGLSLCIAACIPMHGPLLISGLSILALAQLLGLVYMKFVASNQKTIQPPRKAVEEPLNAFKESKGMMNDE

Human IgG was tested, and the EC50 [1] was 0.992 pM and the EC50 [2] was 0.015 nM.
